This series is described as follows: yeast display, Sf9 membrane polyspecificity reagent, FACS + sequencing; frameworks hold sequencing errors. A digest of the protocol: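 Nanobodies from a synthetic yeast display library (Saccharomyces cerevisiae BJ5465), induced 36–48 hours with galactose, were stained 1 hour at 4 °C with 10% biotinylated, detergent-solubilized Sf9 membrane reagent, enriched on streptavidin microbeads, then FACS-sorted. Anti-HA (expression) and streptavidin (reagent binding) fluorescence set low and high (top ~1%) gates. Polyreactivity labels come from the gate of origin. Genes were colony-PCR amplified, MiSeq 2 × 250 sequenced and filtered by CDR length.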
As for “QVQLVESGGGLVQAGGSLRLSCDASGRTFAGYAMGWYRQAPGKERELVAAITTSGGRTYYADSVKGRFTISRDNAKNTVYLQMNSLKPEDTAVYDCNVASKGRYARYAAEYGSWGQGTQVTVSS”, the “polyreactivity (PSR sort gate)” value is reported as “high polyreactivity”.
Take “QDQLVESGGGLVQAGGSLRLSCAASGHIISTYAMGWYRPAPGKERQLVASISENGGTTYYADSVKGRFTISRDIAKNTVYLQMYSLKPEDTAVYYCNADAYVYFDDGDYWGQGTQVTVSS”: the “polyreactivity (PSR sort gate)” value is “low polyreactivity”.
Regarding “QVQLVESGGGLVQAGGRLRLSCAASGIIVGLYTMGWYRQARGKERELVAAISDSGGRTYYADSVKGRFTISRDNVKNTVYLQMNSLKPEDTAVYYCATRWPHYGGYYYWGQGTQVTVSS”, the “polyreactivity (PSR sort gate)” value is “high polyreactivity”.
With “QVQLVESGGGLVQAGGSLRLSCAASGSTFKGYAMGWYRQAPGKERELVAAISSRTGSTYYADSVKGRFTISRDNAKNTVYLQMNSLKPEDTAVYYCAAPWFRDTRGYSLYDYWGQGTQVTVSS”, the “polyreactivity (PSR sort gate)” value was “high polyreactivity”.
On to “QVQHVESRGGLVQAGGSLRLSCAASGLIFALYAMGWYRLAHGKERELVAAIDWSGGSTYYADSVKGRFTISRDNAKNTVYLQMNCLKPEDTAVYYCAADISSSPGNDYWGQGTQVTVSS”, for which the “polyreactivity (PSR sort gate)” value is “high polyreactivity”.
For the sequence “QVQLVESGGGLVQAGGSLRLSCAASGSTFGKNAMGWYRQAPGKERELVAAISRSGGRTYYADSVKGRFTISRDNAKNTVYLQMNSLKPEDPAVYYCAREWYTAGSGDYWGQGTQVTVSS”, the “polyreactivity (PSR sort gate)” value is recorded as “low polyreactivity”.
For the sequence “QVQLVESGGGLVQAGGSLRLSCAASGRIFRHYAMGWYRQAPGKERELFAAIDWDGDTTYYADSVKGRFTISRDNAKNTVYLQMNSLKPEDNAVSYCAAEFYSLGKAIYEYWGQGTQVTVSS”, the “polyreactivity (PSR sort gate)” value is reported as “high polyreactivity”.
Consider “QVQLVESGGGLVQAGGSLRLSFAASGSIFLFNAMGWYRQAPGKERELVAAITSPTARTYYADSVKGRFTISRDNAKNTVYLQMNSLKPEDTAVYYCAARYRYAYGYGRGYSWGQGTQVTVSS”, for which the “polyreactivity (PSR sort gate)” value is “high polyreactivity”.
For the sequence “QVQLVESGGGLVQAGGSLRLSCAASGRIVLGYAMGWYRQQPGKEMELVAAISRSGGGTFYADSVKGRFTISRDNAKNTVYLQMNSLKPEDTAVYYCNARRGRASGMDYWGQGTQVTVSS”, the “polyreactivity (PSR sort gate)” value is recorded as “high polyreactivity”.
In the case of “QVQLVESGGGLVQAGGSLRLSCAGSGSTFWVNDMGWSRQAPGKERELVASITISTGATYYADSVKGRFTISRDTAKNTVYVQINSLKPEDTAVYYCNVEFENSGWKSFDYWGQGTQVTVSS” it was “low polyreactivity”; in that of “QVQLVESGGGLVQAGGSLRLSCAASGRTFGWYTMGWYRKAPGKVRELVAGISSSGGSTYYADSVKGRFTISRDNAKNTVYLQMNSLKPEDTAVYYCARETYPHGLYYRPYDYWGQGTQVTVSS”, “low polyreactivity”; in that of “QVQLEESAGGLVQAGGSLRLSCAASGIIFSGNAMGWYRQATGKERELVAAITLSGGSTYYADSVKGRFTISRDNAKNTVYLQMNSLKPEDTAVYYCNAVYDTIYSLRDIDTEYGSWGQGTQVTVSS”, “low polyreactivity”.
Take “QVQLVESGGGLVQAGGSLRLSCAASGRILDANDMGWYRQAPGKERELVAGINSGGSTYYADSVKGRFTISRDNAKNTVYLQMNSLKPEDTAVYYCAAGGVSAKYDYWGQGTQVTVSS”: the “polyreactivity (PSR sort gate)” value was “low polyreactivity”.
In the case of “QVQLVESGGGLVQAGGSLRLSCAASGITYSGNAMRWYRQAPAKERELVAAISGRGGSTYYADSVKGRFTISRDNAKNTVYLLMNSLKPDDTAVYYCNADVYPYKLALPAGMGYWGQGTQVTVSS” it was “high polyreactivity”.
For “QVQLVESGGGLVQSGGSLRLSCAASGRIFARNAMGWYRQAPGKEREFVAAITFSGGSTYYADSVKGRFTISRDNAKNTVYLQMNSLKPEDTAVYYCAARSWRVLTREDYWGQGTQVTVSS”, the “polyreactivity (PSR sort gate)” value was “high polyreactivity”.
As for “QVQLVESGGGLVQAGGSLRLSCAASGLTFFGYPMGWYRQAPGKEREFVADITWSGGSTYYADSVKGRFTISRDNAKNTVYLQMNSLKPEDTAVYYCAADYHKAEFNYWGQGTQVTVSS”, the “polyreactivity (PSR sort gate)” value is recorded as “low polyreactivity”.

These data come from the nanobody polyreactivity screen of Harvey et al. (2022).
